Measured values from publication doi:10.1101/2022.10.12.511968v1 (biorxiv, 2022).

What was measured:
[1] = biological target: T1, METTL7A (TMT1A1; N-GST-METTL7A) (Homo sapiens, UniProt Q9H8H3); test: TSL S-methylation, TMSL formation by LC-MS/MS, single time-point; assay type: biochemical
T1 sequence (Q9H8H3 1-244): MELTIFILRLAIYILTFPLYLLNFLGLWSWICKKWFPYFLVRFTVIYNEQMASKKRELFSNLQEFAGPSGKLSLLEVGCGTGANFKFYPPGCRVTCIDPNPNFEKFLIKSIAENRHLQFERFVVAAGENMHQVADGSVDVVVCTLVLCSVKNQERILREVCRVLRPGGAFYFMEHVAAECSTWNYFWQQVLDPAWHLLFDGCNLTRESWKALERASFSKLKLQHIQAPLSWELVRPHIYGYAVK

[2] = biological target: T1, METTL7A (TMT1A1; N-GST-METTL7A); test: as above; assay type: biochemical; remark: listed apart in the source
purified protein [3] = substrate: C[S+](CC[C@H](N)C(=O)O)C[C@H]1O[C@@H](n2cnc3c(N)ncnc32)[C@H](O)[C@@H]1O; test: purified protein; settings: 250 µM TSL (saturating), DMPG, pH 7.0, 37 °C, varied: cofactor
purified protein [4] = substrate: C[C@]12CCC(=O)C=C1C[C@@H](S)[C@@H]1[C@@H]2CC[C@@]2(C)[C@H]1CC[C@@]21CCC(=O)O1; test: purified protein; settings: 100 µM SAM, DMPG, pH 7.0, 37 °C

Nc1ncnc2c1ncn2[C@@H]1O[C@H](CSCC[C@H](N)C(=O)O)[C@@H](O)[C@H]1O [SAH]
Ki [1]: 53.9 µM

CC(N)c1cccc(Cl)c1Cl (stereo not drawn) [DCMB, 2,3-dichloro-α-methylbenzylamine]
IC50 [2]: 1.17 µM

B1: METTL7A (TMT1A1; N-GST-METTL7A) (Homo sapiens) (protein)
chain: MELTIFILRLAIYILTFPLYLLNFLGLWSWICKKWFPYFLVRFTVIYNEQMASKKRELFSNLQEFAGPSGKLSLLEVGCGTGANFKFYPPGCRVTCIDPNPNFEKFLIKSIAENRHLQFERFVVAAGENMHQVADGSVDVVVCTLVLCSVKNQERILREVCRVLRPGGAFYFMEHVAAECSTWNYFWQQVLDPAWHLLFDGCNLTRESWKALERASFSKLKLQHIQAPLSWELVRPHIYGYAVK
Km (purified protein [3]): 53.73 µM
Km (purified protein [4]): 39.4 µM

B2: METTL7B (TMT1B1; N-GST-METTL7B) (Homo sapiens) (protein)
chain: MDILVPLLQLLVLLLTLPLHLMALLGCWQPLCKSYFPYLMAVLTPKSNRKMESKKRELFSQIKGLTGASGKVALLELGCGTGANFQFYPPGCRVTCLDPNPHFEKFLTKSMAENRHLQYERFVVAPGEDMRQLADGSMDVVVCTLVLCSVQSPRKVLQEVRRVLRPGGVLFFWEHVAEPYGSWAFMWQQVFEPTWKHIGDGCCLTRETWKDLENAQFSEIQMERQPPPLKWLPVGPHIMGKAVK
Km (purified protein [4]): 32.5 µM
